From patent US20240018502

Tests used:
[1] = target: T1, quenched fluorescence peptidic substrate containing SKGR/SL (P4-P2' of the PAR-2 activation cleavage site, Ser 33 to Leu 38)
T1 chain: SKGRSL

[2] = target: complement protein C3 of cynomolgus monkey plasma
[3] = target: human complement protein C3

Row | Protein | SKGR/SL kcat/Km [1] [M⁻¹ s⁻¹] | ED50 80% cynomolgus plasma (nM), C3 cleavage, C3 ELISA [2] [nM] | ED50 80% human plasma (60 min, nM), C3 cleavage [3] [nM] | further results
1 | Q38H/I41S/D60bT/F60eS/Y60gW/D96K/F97D/ins97aA/T98P/F99L/C122S/G151H/Q175L/Q192D (protein) VVGGTDADEGEWPWQVSLHALGHGHSCGASLISPNWLVSAAHCYIDTRGSRWSDPTQWTAFLGLHDQSQRSAPGVQERRLKRIISHPFFNKDAPLDYDIALLELEKPAEYSSMVRPISLPDASHVFPAGKAIWVTGWGHTQYGGTHALILQKGEIRVINQTTCENLLPQLITPRMMCVGFLSGGVDSCDGDSGGPLSSVEADGRIFQAGVVSWGDGCAQRNKPGVYTRLPLFRDWIKENTGV | 4030 | 85 | 34 | –
2 | Q38H/I41S/D60bT/F60eS/Y60gW/D96K/F97G/ins97aV/T98P/F99L/C122S/G151H/Q175L/Q192D (protein) VVGGTDADEGEWPWQVSLHALGHGHSCGASLISPNWLVSAAHCYIDTRGSRWSDPTQWTAFLGLHDQSQRSAPGVQERRLKRIISHPFFNKGVPLDYDIALLELEKPAEYSSMVRPISLPDASHVFPAGKAIWVTGWGHTQYGGTHALILQKGEIRVINQTTCENLLPQLITPRMMCVGFLSGGVDSCDGDSGGPLSSVEADGRIFQAGVVSWGDGCAQRNKPGVYTRLPLFRDWIKENTGV | 6210 | 92 | 25 | C3H50 Hemolytic Activity (U/mL), C3-depleted serum plus purified C3; Test Condition #1 (C3 and 8 nM test article incubated separately, no pre-cleavage) [3]: 470 U/mL; C3H50 Hemolytic Activity (U/mL), C3-depleted serum plus purified C3; Test Condition #1 (C3 and 40 nM test article incubated separately, no pre-cleavage) [3]: 594 U/mL; C3H50 Hemolytic Activity (U/mL), C3-depleted serum plus purified C3; Test Condition #1 (C3 and 200 nM test article incubated separately, no pre-cleavage) [3]: 438 U/mL; C3H50 Hemolytic Activity (U/mL), C3-depleted serum plus purified C3; Test Condition #2 (C3 pre-incubated 2 h at 37 C with 8 nM test article) [3]: 295 U/mL; C3H50 Hemolytic Activity (U/mL), C3-depleted serum plus purified C3; Test Condition #2 (C3 pre-incubated 2 h at 37 C with 40 nM test article) [3]: 97.9 U/mL; C3H50 Hemolytic Activity (U/mL), C3-depleted serum plus purified C3; Test Condition #2 (C3 pre-incubated 2 h at 37 C with 200 nM test article) [3]: 73.7 U/mL; CH50 hemolytic activity (U/mL), human citrated plasma after 1 h at 37 C with 3.2 nM test article [3]: 73 U/mL; CH50 hemolytic activity (U/mL), human citrated plasma after 1 h at 37 C with 16 nM test article [3]: 69 U/mL; CH50 hemolytic activity (U/mL), human citrated plasma after 1 h at 37 C with 80 nM test article [3]: 41.5 U/mL; CH50 hemolytic activity (U/mL), human citrated plasma after 1 h at 37 C with 400 nM test article [3]: 10.8 U/mL; CH50 hemolytic activity (U/mL), human citrated plasma after 1 h at 37 C with 2000 nM test article [3]: 5.56 U/mL
3 | Wild-type MTSP-1 protease domain with C122S (protein) VVGGTDADEGEWPWQVSLHALGQGHICGASLISPNWLVSAAHCYIDDRGFRYSDPTQWTAFLGLHDQSQRSAPGVQERRLKRIISHPFFNDFTFDYDIALLELEKPAEYSSMVRPISLPDASHVFPAGKAIWVTGWGHTQYGGTGALILQKGEIRVINQTTCENLLPQQITPRMMCVGFLSGGVDSCQGDSGGPLSSVEADGRIFQAGVVSWGDGCAQRNKPGVYTRLPLFRDWIKENTGV | 200000 | 2800 | 3500 | ED50 of cleavage of human C3 [3]: compared to 11 nM for the wild-type protease domain of SEQ ID NO:4
4 | Q38H/I41A/D60bV/F60eR/Y60gW/D96I/F97N/T98G/F99L/C122S/G151N/Q175L/Q192D (protein) VVGGTDADEGEWPWQVSLHALGHGHACGASLISPNWLVSAAHCYIDVRGRRWSDPTQWTAFLGLHDQSQRSAPGVQERRLKRIISHPFFNINGLDYDIALLELEKPAEYSSMVRPISLPDASHVFPAGKAIWVTGWGHTQYGGTNALILQKGEIRVINQTTCENLLPQLITPRMMCVGFLSGGVDSCDGDSGGPLSSVEADGRIFQAGVVSWGDGCAQRNKPGVYTRLPLFRDWIKENTGV | 3560 | 58 | 24 | –
5 | I41R/F97T/Ins97aE/T98G/F99L/C122S/G151N/Q175L/Q192E (protein) VVGGTDADEGEWPWQVSLHALGQGHRCGASLISPNWLVSAAHCYIDDRGFRYSDPTQWTAFLGLHDQSQRSAPGVQERRLKRIISHPFFNDTEGLDYDIALLELEKPAEYSSMVRPISLPDASHVFPAGKAIWVTGWGHTQYGGTNALILQKGEIRVINQTTCENLLPQLITPRMMCVGFLSGGVDSCEGDSGGPLSSVEADGRIFQAGVVSWGDGCAQRNKPGVYTRLPLFRDWIKENTGV | < 100 | 2200 | 835 | –
6 | Q38H/I41S/D60bT/F60eS/Y60gW/D96Y/F97E/ins97aV/T98G/F99L/C122S/G151H/Q175L/Q192D (protein) VVGGTDADEGEWPWQVSLHALGHGHSCGASLISPNWLVSAAHCYIDTRGSRWSDPTQWTAFLGLHDQSQRSAPGVQERRLKRIISHPFFNYEVGLDYDIALLELEKPAEYSSMVRPISLPDASHVFPAGKAIWVTGWGHTQYGGTHALILQKGEIRVINQTTCENLLPQLITPRMMCVGFLSGGVDSCDGDSGGPLSSVEADGRIFQAGVVSWGDGCAQRNKPGVYTRLPLFRDWIKENTGV | 865 | 133 | 38 | –
7 | Q38H/I41S/D60bT/F60eS/Y60gW/F97D/ins97aV/T98P/F99L/C122S/G151N/Q175L/Q192D (protein) VVGGTDADEGEWPWQVSLHALGHGHSCGASLISPNWLVSAAHCYIDTRGSRWSDPTQWTAFLGLHDQSQRSAPGVQERRLKRIISHPFFNDDVPLDYDIALLELEKPAEYSSMVRPISLPDASHVFPAGKAIWVTGWGHTQYGGTNALILQKGEIRVINQTTCENLLPQLITPRMMCVGFLSGGVDSCDGDSGGPLSSVEADGRIFQAGVVSWGDGCAQRNKPGVYTRLPLFRDWIKENTGV | 1730 | 118 | 41 | –
8 | Q38H/I41A/D60bT/F60eK/Y60gW/F97T/ins97aE/T98G/F99L/C122S/G151H/Q175L/Q192D (protein) VVGGTDADEGEWPWQVSLHALGHGHACGASLISPNWLVSAAHCYIDTRGKRWSDPTQWTAFLGLHDQSQRSAPGVQERRLKRIISHPFFNDTEGLDYDIALLELEKPAEYSSMVRPISLPDASHVFPAGKAIWVTGWGHTQYGGTHALILQKGEIRVINQTTCENLLPQLITPRMMCVGFLSGGVDSCDGDSGGPLSSVEADGRIFQAGVVSWGDGCAQRNKPGVYTRLPLFRDWIKENTGV | 742 | 136 | 38 | –
9 | Q38H/I41A/D60bV/F60eR/Y60gW/D96P/F97W/ins97aN/T98G/F99L/C122S/G151N/Q175L/Q192E (protein) VVGGTDADEGEWPWQVSLHALGHGHACGASLISPNWLVSAAHCYIDVRGRRWSDPTQWTAFLGLHDQSQRSAPGVQERRLKRIISHPFFNPWNGLDYDIALLELEKPAEYSSMVRPISLPDASHVFPAGKAIWVTGWGHTQYGGTNALILQKGEIRVINQTTCENLLPQLITPRMMCVGFLSGGVDSCEGDSGGPLSSVEADGRIFQAGVVSWGDGCAQRNKPGVYTRLPLFRDWIKENTGV | 1620 | 73 | 47 | –
10 | Q38H/I41S/D60bT/F60eS/Y60gW/D96L/F97D/ins97aG/T98N/F99L/C122S/G151H/Q175L/Q192E (protein) VVGGTDADEGEWPWQVSLHALGHGHSCGASLISPNWLVSAAHCYIDTRGSRWSDPTQWTAFLGLHDQSQRSAPGVQERRLKRIISHPFFNLDGNLDYDIALLELEKPAEYSSMVRPISLPDASHVFPAGKAIWVTGWGHTQYGGTHALILQKGEIRVINQTTCENLLPQLITPRMMCVGFLSGGVDSCEGDSGGPLSSVEADGRIFQAGVVSWGDGCAQRNKPGVYTRLPLFRDWIKENTGV | 1300 | 70 | 39 | –
11 | Q38H/I41S/D60bT/F60eS/Y60gW/F97D/ins97aV/T98P/F99L/C122S/G151H/Q175L/Q192E (protein) VVGGTDADEGEWPWQVSLHALGHGHSCGASLISPNWLVSAAHCYIDTRGSRWSDPTQWTAFLGLHDQSQRSAPGVQERRLKRIISHPFFNDDVPLDYDIALLELEKPAEYSSMVRPISLPDASHVFPAGKAIWVTGWGHTQYGGTHALILQKGEIRVINQTTCENLLPQLITPRMMCVGFLSGGVDSCEGDSGGPLSSVEADGRIFQAGVVSWGDGCAQRNKPGVYTRLPLFRDWIKENTGV | 959 | 76 | 50 | –
12 | Q38H/I41A/D60bV/F60eR/Y60gW/F97T/ins97aE/T98G/F99L/C122S/G151H/Q175L/Q192D (protein) VVGGTDADEGEWPWQVSLHALGHGHACGASLISPNWLVSAAHCYIDVRGRRWSDPTQWTAFLGLHDQSQRSAPGVQERRLKRIISHPFFNDTEGLDYDIALLELEKPAEYSSMVRPISLPDASHVFPAGKAIWVTGWGHTQYGGTHALILQKGEIRVINQTTCENLLPQLITPRMMCVGFLSGGVDSCDGDSGGPLSSVEADGRIFQAGVVSWGDGCAQRNKPGVYTRLPLFRDWIKENTGV | 1360 | 133 | 32 | –
13 | Q38H/I41A/D60bT/F60eK/Y60gW/F97T/ins97aE/T98G/F99L/C122S/G151N/Q175L/Q192D (protein) VVGGTDADEGEWPWQVSLHALGHGHACGASLISPNWLVSAAHCYIDTRGKRWSDPTQWTAFLGLHDQSQRSAPGVQERRLKRIISHPFFNDTEGLDYDIALLELEKPAEYSSMVRPISLPDASHVFPAGKAIWVTGWGHTQYGGTNALILQKGEIRVINQTTCENLLPQLITPRMMCVGFLSGGVDSCDGDSGGPLSSVEADGRIFQAGVVSWGDGCAQRNKPGVYTRLPLFRDWIKENTGV | 245 | 195 | 65 | –
14 | Q38H/I41A/D60bV/F60eR/Y60gW/D96I/F97Y/ins97aN/T98G/F99L/C122S/G151N/Q175L/Q192D (protein) VVGGTDADEGEWPWQVSLHALGHGHACGASLISPNWLVSAAHCYIDVRGRRWSDPTQWTAFLGLHDQSQRSAPGVQERRLKRIISHPFFNIYNGLDYDIALLELEKPAEYSSMVRPISLPDASHVFPAGKAIWVTGWGHTQYGGTNALILQKGEIRVINQTTCENLLPQLITPRMMCVGFLSGGVDSCDGDSGGPLSSVEADGRIFQAGVVSWGDGCAQRNKPGVYTRLPLFRDWIKENTGV | 2320 | 37 | 27 | –
15 | Q38H/I41S/D60bT/F60eS/Y60gW/F97D/ins97aV/T98P/F99L/C122S/G151H/Q175L/Q192D (protein) VVGGTDADEGEWPWQVSLHALGHGHSCGASLISPNWLVSAAHCYIDTRGSRWSDPTQWTAFLGLHDQSQRSAPGVQERRLKRIISHPFFNDDVPLDYDIALLELEKPAEYSSMVRPISLPDASHVFPAGKAIWVTGWGHTQYGGTHALILQKGEIRVINQTTCENLLPQLITPRMMCVGFLSGGVDSCDGDSGGPLSSVEADGRIFQAGVVSWGDGCAQRNKPGVYTRLPLFRDWIKENTGV | 1730 | 152 | 50 | –
16 | Q38H/I41A/D60bV/F60eR/Y60gW/F97T/ins97aE/T98G/F99L/C122S/G151N/Q175L/Q192D (protein) VVGGTDADEGEWPWQVSLHALGHGHACGASLISPNWLVSAAHCYIDVRGRRWSDPTQWTAFLGLHDQSQRSAPGVQERRLKRIISHPFFNDTEGLDYDIALLELEKPAEYSSMVRPISLPDASHVFPAGKAIWVTGWGHTQYGGTNALILQKGEIRVINQTTCENLLPQLITPRMMCVGFLSGGVDSCDGDSGGPLSSVEADGRIFQAGVVSWGDGCAQRNKPGVYTRLPLFRDWIKENTGV | 925 | 101 | 52 | –
